In paper PMC2192333 (The Journal of Experimental Medicine, 1996):

Tests used:
ICAM-1 [1] = conditions: cited from earlier work
ICAM-1 [2] = experiment: Adhesion of 293 cells transfected with CD11a I domain mutants/CD18 to ICAM-1Fc; format: cell-based, human; conditions: wide range of concentrations of ICAM-1, data not shown

Molecule | binding to ICAM-1 (ICAM-1 [1]) | adhesion to ICAM-1, wide range of ICAM-1 concentrations (ICAM-1 [2])
D137A (protein, UniProt P20701 26-1170, looked up, variant D137A) Integrin alpha-L: YNLDVRGARSFSPPRAGRHFGYRVLQVGNGVIVGAPGEGNSTGSLYQCQSGTGHCLPVTLRGSNYTSKYLGMTLATDPTDGSILACDPGLSRTCDQNTYLSGLCYLFRQNLQGPMLQGRPGFQECIKGNVDLVFLFAGSMSLQPDEFQKILDFMKDVMKKLSNTSYQFAAVQFSTSYKTEFDFSDYVKRKDPDALLKHVKHMLLLTNTFGAINYVATEVFREELGARPDATKVLIIITDGEATDSGNIDAAKDIIRYIIGIGKHFQTKESQETLHKFASKPASEFVKILDTFEKLKDLFTELQKKIYVIEGTSKQDLTSFNMELSSSGISADLSRGHAVVGAVGAKDWAGGFLDLKADLQDDTFIGNEPLTPEVRAGYLGYTVTWLPSRQKTSLLASGAPRYQHMGRVLLFQEPQGGGHWSQVQTIHGTQIGSYFGGELCGVDVDQDGETELLLIGAPLFYGEQRGGRVFIYQRRQLGFEEVSELQGDPGYPLGRFGEAITALTDINGDGLVDVAVGAPLEEQGAVYIFNGRHGGLSPQPSQRIEGTQVLSGIQWFGRSIHGVKDLEGDGLADVAVGAESQMIVLSSRPVVDMVTLMSFSPAEIPVHEVECSYSTSNKMKEGVNITICFQIKSLIPQFQGRLVANLTYTLQLDGHRTRRRGLFPGGRHELRRNIAVTTSMSCTDFSFHFPVCVQDLISPINVSLNFSLWEEEGTPRDQRAQGKDIPPILRPSLHSETWEIPFEKNCGEDKKCEANLRVSFSPARSRALRLTAFASLSVELSLSNLEEDAYWVQLDLHFPPGLSFRKVEMLKPHSQIPVSCEELPEESRLLSRALSCNVSSPIFKAGHSVALQMMFNTLVNSSWGDSVELHANVTCNNEDSDLLEDNSATTIIPILYPINILIQDQEDSTLYVSFTPKGPKIHQVKHMYQVRIQPSIHDHNIPTLEAVVGVPQPPSEGPITHQWSVQMEPPVPCHYEDLERLPDAAEPCLPGALFRCPVVFRQEILVQVIGTLELVGEIEASSMFSLCSSLSISFNSSKHFHLYGSNASLAQVVMKVDVVYEKQMLYLYVLSGIGGLLLLLLIFIVLYKVGFFKRNLKEKMEAGRGVPNGIPAEDSEQLASGQEAGDPGCLKPLHEKDSESGGGKD | critical to ICAM-1 binding | 
H/M53: human Ile-126 and Asn-129 replaced with murine residues Met and Lys, respectively (protein, UniProt P20701 26-1170, looked up, variant I126M N129K) Integrin alpha-L: YNLDVRGARSFSPPRAGRHFGYRVLQVGNGVIVGAPGEGNSTGSLYQCQSGTGHCLPVTLRGSNYTSKYLGMTLATDPTDGSILACDPGLSRTCDQNTYLSGLCYLFRQNLQGPMLQGRPGFQECMKGKVDLVFLFDGSMSLQPDEFQKILDFMKDVMKKLSNTSYQFAAVQFSTSYKTEFDFSDYVKRKDPDALLKHVKHMLLLTNTFGAINYVATEVFREELGARPDATKVLIIITDGEATDSGNIDAAKDIIRYIIGIGKHFQTKESQETLHKFASKPASEFVKILDTFEKLKDLFTELQKKIYVIEGTSKQDLTSFNMELSSSGISADLSRGHAVVGAVGAKDWAGGFLDLKADLQDDTFIGNEPLTPEVRAGYLGYTVTWLPSRQKTSLLASGAPRYQHMGRVLLFQEPQGGGHWSQVQTIHGTQIGSYFGGELCGVDVDQDGETELLLIGAPLFYGEQRGGRVFIYQRRQLGFEEVSELQGDPGYPLGRFGEAITALTDINGDGLVDVAVGAPLEEQGAVYIFNGRHGGLSPQPSQRIEGTQVLSGIQWFGRSIHGVKDLEGDGLADVAVGAESQMIVLSSRPVVDMVTLMSFSPAEIPVHEVECSYSTSNKMKEGVNITICFQIKSLIPQFQGRLVANLTYTLQLDGHRTRRRGLFPGGRHELRRNIAVTTSMSCTDFSFHFPVCVQDLISPINVSLNFSLWEEEGTPRDQRAQGKDIPPILRPSLHSETWEIPFEKNCGEDKKCEANLRVSFSPARSRALRLTAFASLSVELSLSNLEEDAYWVQLDLHFPPGLSFRKVEMLKPHSQIPVSCEELPEESRLLSRALSCNVSSPIFKAGHSVALQMMFNTLVNSSWGDSVELHANVTCNNEDSDLLEDNSATTIIPILYPINILIQDQEDSTLYVSFTPKGPKIHQVKHMYQVRIQPSIHDHNIPTLEAVVGVPQPPSEGPITHQWSVQMEPPVPCHYEDLERLPDAAEPCLPGALFRCPVVFRQEILVQVIGTLELVGEIEASSMFSLCSSLSISFNSSKHFHLYGSNASLAQVVMKVDVVYEKQMLYLYVLSGIGGLLLLLLIFIVLYKVGFFKRNLKEKMEAGRGVPNGIPAEDSEQLASGQEAGDPGCLKPLHEKDSESGGGKD |  | identical binding as that of wild-type CD11a
